Residue numbers refer to the chain shown, from its start.
Legend:
[1] = target: T1, T7 DNA polymerase (T7 DNA pol; T7 gp5 + E. coli thioredoxin) (Escherichia phage T7, UniProt P00581); assay: rapid-quench ssDNA excision, denaturing PAGE, global fit (KinTek Explorer); assay type: biochemical; settings: read-out: Best fit
T1 construct: gene 5; wild-type exo-proficient (x+) gp5 catalytic subunit, purified as previously described, reconstituted with at least twofold molar excess of E. coli thioredoxin; with Thioredoxin 1
From the text: rapid-quench ssDNA excision, denaturing PAGE, global fit (KinTek Explorer) on T7 DNA polymerase (T7 DNA pol; T7 gp5 + E. coli thioredoxin) | dCMP binds to the free enzyme, acting as a weak competitive inhibitor for ssDNA binding

[2] = target: T2, T7 DNA polymerase gp5 (wild-type, exo+);thioredoxin (accessory protein) (bacteriophage T7;Escherichia coli, UniProt P00581;P0AA25 1-704;2-109, |); assay: stopped-flow fluorescence anisotropy, global fit (with tCo-27-PThio titration); 12.5 mM Mg2+; k1 1100 uM-1 s-1, k-1 44 s-1; exo site; T7 reaction buffer (composition and pH not given in the material), 12.5 mM Mg2+; 20 C stated for rapid-quench; settings: protein: recombinant;recombinant; tags: ;; copies: 1;1; label: 5' 6-FAM; single strand
[3] = target: T2, T7 DNA polymerase gp5 (wild-type, …); assay: equilibrium fluorescence titration (Trp-tCo FRET), hyperbolic fit; 12.5 mM Mg2+; exo site; T7 reaction buffer (composition and pH not given in the material), 12.5 mM Mg2+; 20 C stated for rapid-quench; settings: protein: recombinant;recombinant; tags: ;; copies: 1;1; label: tCo; single strand
[4] = target: T2, T7 DNA polymerase gp5 (wild-type, …); assay: equilibrium fluorescence titration (Trp-tCo FRET), quadratic fit; 2 uM thioredoxin; net Kd over pol, intermediate and exo sites; Mg2+ not stated for this titration; T7 reaction buffer (composition and pH not given in the material), 12.5 mM Mg2+; 20 C stated for rapid-quench; settings: protein: recombinant;recombinant; tags: ;; copies: 1;1; label: tCo; primer/template, 18 nt template 5' overhang, 3'-terminal C:C mismatch
[5] = target: T2, T7 DNA polymerase gp5 (wild-type, …); assay: equilibrium fluorescence titration (Trp-tCo FRET), quadratic fit; 12.5 mM Mg2+, 2 uM thioredoxin; net Kd over all sites; T7 reaction buffer (composition and pH not given in the material), 12.5 mM Mg2+; 20 C stated for rapid-quench; settings: protein: recombinant;recombinant; tags: ;; copies: 1;1; label: tCo; primer/template, 18 nt template 5' overhang, A:A mismatch buried by one terminal C:G pair

T2 sequence (P00581 whole entry, chain 1 of 2): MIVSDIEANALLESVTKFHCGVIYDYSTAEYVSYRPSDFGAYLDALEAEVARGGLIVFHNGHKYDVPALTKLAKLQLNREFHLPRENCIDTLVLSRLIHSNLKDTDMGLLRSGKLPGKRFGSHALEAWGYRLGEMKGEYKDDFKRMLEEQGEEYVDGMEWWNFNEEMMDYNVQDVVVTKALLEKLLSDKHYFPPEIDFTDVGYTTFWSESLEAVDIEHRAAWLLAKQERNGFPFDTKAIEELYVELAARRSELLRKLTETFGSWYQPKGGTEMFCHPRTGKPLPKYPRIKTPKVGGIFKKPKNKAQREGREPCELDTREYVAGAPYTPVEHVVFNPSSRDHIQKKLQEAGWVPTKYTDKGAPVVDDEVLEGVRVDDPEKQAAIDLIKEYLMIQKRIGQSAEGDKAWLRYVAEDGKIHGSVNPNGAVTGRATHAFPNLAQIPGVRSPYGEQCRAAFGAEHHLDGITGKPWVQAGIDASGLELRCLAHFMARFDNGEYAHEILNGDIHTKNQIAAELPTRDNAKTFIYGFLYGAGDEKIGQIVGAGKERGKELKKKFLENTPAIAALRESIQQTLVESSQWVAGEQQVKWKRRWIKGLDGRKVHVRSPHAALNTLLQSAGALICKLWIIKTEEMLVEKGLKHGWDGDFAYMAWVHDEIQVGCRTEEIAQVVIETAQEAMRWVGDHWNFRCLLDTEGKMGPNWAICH
T2 sequence (P0AA25 2-109, chain 2 of 2): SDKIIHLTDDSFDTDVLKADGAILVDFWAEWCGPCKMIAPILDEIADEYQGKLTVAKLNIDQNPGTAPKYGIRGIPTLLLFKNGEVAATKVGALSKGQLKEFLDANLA
T1 sequence (P00581 whole entry): as the sequence (P00581 whole entry, chain 1 of 2) above
T1 sequence (P0AA25 2-109 partner): as the sequence (P0AA25 2-109, chain 2 of 2) above

`Nc1ccn([C@H]2C[C@H](O)[C@@H](COP(=O)(O)O)O2)c(=O)n1` [dCMP] showed a Ki [1] of 5650 µM.

CCGTCGCAGCCGTCCAACCAACTACAC (ssDNA, Sp phosphorothioate at the 3'-terminal linkage (A*C)) [FAM-27-PThio] showed a Kd [2] of 0.04 ± 0.0014 µM.

B1: tCo-27-PThio (ssDNA)
DNA: CCGTCGCAGCCGTCCAACCAACTACAC
modifications: tCo (1,3-diaza-2-oxophenoxazine, C analog) at position 25; Sp phosphorothioate at the 3'-terminal linkage
In the case of B1, the Kd [3] is reported as roughly 0.06 µM.

B2: tCo-27-PThio/45-3'MM-PThio (dsDNA)
DNA 1: CCGTCGCAGCCGTCCAACCAACTACAC
DNA 2: GGACGGCATTGGATCGATCTGTAGTTGGTTGGACGGCTGCGACGG
modifications: primer: tCo at position 25, Sp phosphorothioate at the 3'-terminal linkage; template: phosphorothioate at the 3'-terminal linkage
B2 was tested, and the Kd [4] was 0.0007 ± 0.0001 µM.

B3: tCo-27-PThio/45-BMM-PThio (dsDNA)
DNA 1: CCGTCGCAGCCGTCCAACCAACTACAC
DNA 2: B2 DNA 2 with C19G, T20A
modifications: primer: tCo at position 25, Sp phosphorothioate at the 3'-terminal linkage; template: phosphorothioate at the 3'-terminal linkage
For B3, the Kd [5] was roughly 0.0005 µM.

From PMC9800556, “Kinetics of DNA strand transfer between polymerase and proofreading exonuclease active sites regulates error correction during high-fidelity replication” (The Journal of Biological Chemistry, 2022)
